Drawing on patent publication US20050282743A1, “Molecular interactions in cells” (Arbor Vita Corporation, priority 2001, published 2005), this text covers Kd and Classification for three molecules.

In experiment [1] the target is GST-KIAA1634 PDZ domain 4 (Homo sapiens (Human)), Q5TCQ9. Nature of the experiment: G assay titration, PDZ 5 ug/ml.
Experiment [2] concerns the target T1, GST-ERBIN PDZ domain 1 (Homo sapiens (Human)), Q96RT1.
T1 chain: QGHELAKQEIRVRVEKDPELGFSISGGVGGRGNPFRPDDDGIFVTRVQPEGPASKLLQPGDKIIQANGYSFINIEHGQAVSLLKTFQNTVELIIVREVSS
Briefly: G assay titration, PDZ 5 ug/ml.

In experiment [3] the target is T2, GST-KIAA0807(S) PDZ domain 1 (Homo sapiens (Human)), Q6P0Q8.
T2 chain: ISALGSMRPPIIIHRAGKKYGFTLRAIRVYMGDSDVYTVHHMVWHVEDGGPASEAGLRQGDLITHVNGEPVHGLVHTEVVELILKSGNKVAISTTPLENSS
Nature of the experiment: G assay titration, PDZ 0.1 ug/ml.

The target in experiment [4] is T3, GST-DLG1 PDZ domain 2 (Homo sapiens), Q12959.
T3 chain: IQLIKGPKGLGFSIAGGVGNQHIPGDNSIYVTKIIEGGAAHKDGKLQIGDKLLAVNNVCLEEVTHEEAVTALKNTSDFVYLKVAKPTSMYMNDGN
Briefly: G' assay. Also: key of the grades not given here.

Experiment [5] has as its target T4, GST-TIP1 PDZ domain 1 (Table 9 insert) (Homo sapiens (Human)), O14907.
T4 chain: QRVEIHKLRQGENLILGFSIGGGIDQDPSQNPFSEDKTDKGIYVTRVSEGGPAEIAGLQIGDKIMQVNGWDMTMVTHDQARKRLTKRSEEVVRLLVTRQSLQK
Nature of the experiment: G' assay. Also: key of the grades not given here.

Experiment [6] concerns the target T5, GST-KIAA0973 PDZ domain 1 (Homo sapiens (Human)), Q9Y2H9.
T5 chain: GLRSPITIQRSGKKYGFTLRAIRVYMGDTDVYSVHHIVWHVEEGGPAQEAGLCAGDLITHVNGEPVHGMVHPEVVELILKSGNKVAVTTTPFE
Nature of the experiment: G' assay. Also: key of the grades not given here.

Experiment [7] has as its target GST-KIAA807 [GST: P08515]. Nature of the experiment: G' assay. Also: key of the grades not given here.
In experiment [8] the target is T6, GST-Outer Membrane PDZ domain 1 (Homo sapiens (Human)), P57105.
T6 chain: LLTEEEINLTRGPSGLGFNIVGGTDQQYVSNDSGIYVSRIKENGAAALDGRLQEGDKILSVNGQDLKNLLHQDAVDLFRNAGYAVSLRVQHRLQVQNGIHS
Nature of the experiment: G' assay. Also: key of the grades not given here.

Experiment [9] concerns the target T7, GST-ZO-3 PDZ domain 3 (Homo sapiens (Human)), O95049.
T7 chain: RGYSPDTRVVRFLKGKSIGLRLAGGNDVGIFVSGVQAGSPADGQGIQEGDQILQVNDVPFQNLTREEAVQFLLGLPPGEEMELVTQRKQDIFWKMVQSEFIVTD
Nature of the experiment: G' assay. Also: key of the grades not given here.

Experiment [10] addresses T8, GST-KIAA0380 PDZ domain 1 (Homo sapiens (Human)), O15085.
T8 chain: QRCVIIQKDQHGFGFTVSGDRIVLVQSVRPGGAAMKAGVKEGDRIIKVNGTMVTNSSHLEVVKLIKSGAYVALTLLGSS
Nature of the experiment: G' assay.

For experiment [11], the target named is GST-BAI-1 Associated Protein PDZ domain 5 (Homo sapiens (Human)), Q96QZ7. Briefly: G' assay. Also: key of the grades not given here.
Chain of GST-BAI-1 Associated Protein PDZ domain 5 (Homo sapiens (Human)), Q96QZ7 (Q96QZ7 988-1099): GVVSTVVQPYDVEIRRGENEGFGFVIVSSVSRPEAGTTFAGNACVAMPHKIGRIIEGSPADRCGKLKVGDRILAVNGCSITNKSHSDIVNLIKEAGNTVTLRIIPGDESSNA
For experiment [12], the target named is T9, GST-NeDLG PDZ domain 3 (Mus musculus (Mouse)), P70175.
T9 chain: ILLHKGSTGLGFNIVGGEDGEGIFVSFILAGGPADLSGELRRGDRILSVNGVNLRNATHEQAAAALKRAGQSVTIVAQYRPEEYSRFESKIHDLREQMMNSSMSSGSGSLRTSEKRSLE
Nature of the experiment: G' assay.

Experiment [13] deals with GST-KIAA1634 PDZ domain 4 (Homo sapiens (Human)), Q5TCQ9. Briefly: G' assay. Also: key of the grades not given here.
The target of experiment [14] is T10, GST-KIAA1526 PDZ domain 1 (Homo sapiens (Human)), Q9P202.
T10 chain: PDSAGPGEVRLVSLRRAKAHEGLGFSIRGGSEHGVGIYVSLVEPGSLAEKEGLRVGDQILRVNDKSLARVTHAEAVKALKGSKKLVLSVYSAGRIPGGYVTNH
Briefly: G' assay.

Experiment [15] addresses T11, GST-INADL PDZ domain 8 (Homo sapiens (Human)), Q8NI35.
T11 chain: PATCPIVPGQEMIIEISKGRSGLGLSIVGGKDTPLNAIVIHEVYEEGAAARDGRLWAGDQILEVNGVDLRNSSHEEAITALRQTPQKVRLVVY
Nature of the experiment: G' assay.

Experiment [16] concerns the target T12, GST-Syntrophin 1 alpha PDZ domain 1 (Homo sapiens (Human)), Q13424.
T12 chain: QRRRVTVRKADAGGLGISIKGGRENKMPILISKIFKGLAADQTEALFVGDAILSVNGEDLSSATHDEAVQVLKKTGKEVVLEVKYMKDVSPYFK
Nature of the experiment: G' assay.

Experiment [17] has as its target T13, GST-MUPP1 PDZ domain 10 (Homo sapiens (Human)), O75970.
T13 chain: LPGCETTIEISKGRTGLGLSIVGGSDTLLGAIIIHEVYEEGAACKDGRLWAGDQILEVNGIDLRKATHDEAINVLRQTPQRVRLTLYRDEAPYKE
Nature of the experiment: G' assay.

The target in experiment [18] is T1, GST-ERBIN PDZ domain 1 (Homo sapiens …). Nature of the experiment: G' assay.
The target of experiment [19] is T2, GST-KIAA0807(S) PDZ domain 1 (Homo …). Briefly: G' assay.
The target of experiment [20] is GST-PSD95 PDZ domains 1, 2, 3 (Homo sapiens), P78352. Briefly: G' assay. Also: key of the grades not given here.
Chain of GST-PSD95 PDZ domains 1, 2, 3 (Homo sapiens), P78352 (P78352 62-395): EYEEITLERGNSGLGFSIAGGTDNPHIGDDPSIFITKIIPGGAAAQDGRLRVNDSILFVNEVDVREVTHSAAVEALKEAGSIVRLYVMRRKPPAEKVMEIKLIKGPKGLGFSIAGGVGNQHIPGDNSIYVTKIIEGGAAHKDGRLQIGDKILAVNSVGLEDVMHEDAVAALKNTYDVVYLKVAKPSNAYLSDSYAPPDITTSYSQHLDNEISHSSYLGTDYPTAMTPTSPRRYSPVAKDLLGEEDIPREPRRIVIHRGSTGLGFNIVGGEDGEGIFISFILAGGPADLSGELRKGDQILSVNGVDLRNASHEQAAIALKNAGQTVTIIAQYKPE
The target in experiment [21] is GST-DLG1 PDZ domains 1, 2 (Homo sapiens), Q12959. Briefly: G' assay. Also: key of the grades not given here.
For experiment [22], the target named is T14, GST-PTPL1 PDZ domain 2 (Homo sapiens (Human)), Q12923.
T14 chain: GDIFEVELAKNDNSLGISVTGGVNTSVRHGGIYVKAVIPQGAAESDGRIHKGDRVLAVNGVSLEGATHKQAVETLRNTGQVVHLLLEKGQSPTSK
Nature of the experiment: G' assay.

Experiment [23] addresses T15, GST-Syntrophin gamma 1 PDZ domain 1 (Homo sapiens (Human)), Q9NSN8.
T15 chain: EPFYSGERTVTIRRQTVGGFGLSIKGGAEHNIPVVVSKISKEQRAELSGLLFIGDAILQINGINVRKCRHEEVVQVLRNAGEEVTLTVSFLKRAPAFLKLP
Briefly: G' assay.

In experiment [24] the target is GST-Atrophin-1 Interacting Protein PDZ domain 5 (Rattus norvegicus (Rat)), O88382. Briefly: G' assay. Also: key of the grades not given here.
Chain of GST-Atrophin-1 Interacting Protein PDZ domain 5 (Rattus norvegicus (Rat)), O88382 (O88382 1128-1225): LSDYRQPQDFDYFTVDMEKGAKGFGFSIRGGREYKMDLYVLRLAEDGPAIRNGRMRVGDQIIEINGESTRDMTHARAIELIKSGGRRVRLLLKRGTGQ
Experiment [25] concerns the target T16, GST-KIAA1634 PDZ domain 2 (Homo sapiens (Human)), Q5TCQ9.
T16 chain: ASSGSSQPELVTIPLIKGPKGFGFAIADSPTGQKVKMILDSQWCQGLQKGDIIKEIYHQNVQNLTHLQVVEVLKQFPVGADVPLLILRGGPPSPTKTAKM
Nature of the experiment: G' assay.

Experiment [26] addresses GST-BAI-1 Associated Protein PDZ domain 3 (Homo sapiens (Human)), Q96QZ7. Briefly: G' assay. Also: key of the grades not given here.
Experiment [27] concerns the target T17, GST-NeDLG PDZ domains 1, 2, Q92796.
T17 chain: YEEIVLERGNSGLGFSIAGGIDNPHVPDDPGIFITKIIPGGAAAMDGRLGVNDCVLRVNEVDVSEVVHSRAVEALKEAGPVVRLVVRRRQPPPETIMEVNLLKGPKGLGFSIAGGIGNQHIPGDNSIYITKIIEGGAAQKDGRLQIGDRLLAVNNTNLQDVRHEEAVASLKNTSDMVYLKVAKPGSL
Nature of the experiment: G' assay.

Experiment [28] concerns the target T16, GST-KIAA1634 PDZ domain 2 (Homo sapiens …). Nature of the experiment: G assay titration, PDZ 1 ug/ml.
The target in experiment [29] is T14, GST-PTPL1 PDZ domain 2 (Homo sapiens …). Briefly: G assay titration, PDZ 0.5 ug/ml.
The target of experiment [30] is GST-TAX IP2 PDZ domain 1 [GST: P08515]. Briefly: G' assay.
Chain of GST-TAX IP2 PDZ domain 1 [GST: P08515] (P08515 whole entry, the tested form may be a part): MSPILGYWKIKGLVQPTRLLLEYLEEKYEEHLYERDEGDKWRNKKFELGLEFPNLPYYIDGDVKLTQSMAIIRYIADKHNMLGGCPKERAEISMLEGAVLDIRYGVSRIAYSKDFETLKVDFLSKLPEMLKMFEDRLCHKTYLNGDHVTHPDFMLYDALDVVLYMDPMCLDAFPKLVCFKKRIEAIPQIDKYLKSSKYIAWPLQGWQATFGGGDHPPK
The target in experiment [31] is T18, GST-KIAA1719 PDZ domain 5 (Homo sapiens (Human)), Q9C0E4.
T18 chain: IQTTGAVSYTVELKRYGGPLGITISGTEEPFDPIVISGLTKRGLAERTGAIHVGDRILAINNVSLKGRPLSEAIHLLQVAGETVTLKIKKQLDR
Nature of the experiment: G' assay.

Experiment [32] deals with T19, GST-MINT1 PDZ domains 1, 2, Q02410.
T19 chain: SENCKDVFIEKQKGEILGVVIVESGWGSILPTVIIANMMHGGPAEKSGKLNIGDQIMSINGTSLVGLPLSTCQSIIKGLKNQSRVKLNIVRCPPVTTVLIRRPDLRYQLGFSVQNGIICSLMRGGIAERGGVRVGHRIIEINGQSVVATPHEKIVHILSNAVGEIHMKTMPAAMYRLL
Nature of the experiment: G' assay.

For experiment [33], the target named is T20, GST-KIAA1719 PDZ domain 2 (Homo sapiens (Human)), Q9C0E4.
T20 chain: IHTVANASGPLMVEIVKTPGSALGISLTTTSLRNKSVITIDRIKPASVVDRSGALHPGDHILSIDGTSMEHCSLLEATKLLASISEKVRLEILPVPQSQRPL
Nature of the experiment: G' assay.

Experiment [34] deals with GST-KIAA1634 PDZ domain 1 (Homo sapiens (Human)), Q5TCQ9. Nature of the experiment: G' assay. Also: key of the grades not given here.
Chain of GST-KIAA1634 PDZ domain 1 (Homo sapiens (Human)), Q5TCQ9 (Q5TCQ9 401-502): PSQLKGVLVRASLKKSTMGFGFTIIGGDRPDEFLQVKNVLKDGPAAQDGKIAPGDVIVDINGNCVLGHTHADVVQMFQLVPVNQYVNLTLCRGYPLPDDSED

Chain of GST-KIAA1634 PDZ domain 4 (Homo sapiens (Human)), Q5TCQ9 (Q5TCQ9 844-945): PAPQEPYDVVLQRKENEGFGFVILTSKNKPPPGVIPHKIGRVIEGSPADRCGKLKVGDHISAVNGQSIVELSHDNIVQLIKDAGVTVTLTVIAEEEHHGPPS
Chain of GST-BAI-1 Associated Protein PDZ domain 3 (Homo sapiens (Human)), Q96QZ7 (Q96QZ7 other isoform, or with tags, fused parts or gaps): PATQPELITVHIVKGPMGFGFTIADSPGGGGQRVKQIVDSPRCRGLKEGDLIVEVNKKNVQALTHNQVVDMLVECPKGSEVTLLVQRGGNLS
Chain of GST-KIAA807 [GST: P08515] (P08515 whole entry, the tested form may be a part): as the sequence (P08515 whole entry, the tested form may be a part) above

B1: CITRON protein (peptide)
peptide: AGAVRTPLSQVNKVWDQSSV
modifications: not checked
B1: the Kd in experiment [1] was found to be 8 µM; in [2], 7 µM; in experiment [3] it was 1 µM. The Classification in [4] worked out at 2 A450 class; in [5], 5 A450 class; in experiment [6] it was 5 A450 class; in experiment [7] it was 4 A450 class; in [8], 4 A450 class; in experiment [9], 1 A450 class. Also, the Classification in experiment [10] was determined as 1 A450 class; in [11], 2 A450 class; in [12] it was 3 A450 class; in experiment [13] it was 3 A450 class; in [14], 1 A450 class; in [15], 1 A450 class. In addition, the Classification turned out to be 1 A450 class in experiment [16], 1 A450 class in experiment [17], 4 A450 class in experiment [18] and 4 A450 class in experiment [19].

B2: PDZ-binding kinase (PBK) (peptide)
peptide: EDPKDRPSAAHIVEALETDV
modifications: not checked
Consider B2, for which the Classification in experiment [20] is 1 A450 class; in [21] it was 1 A450 class; in experiment [22], 4 A450 class; in experiment [23], 1 A450 class; in [5], 1 A450 class; in [24] it was 1 A450 class. The Classification is 3 A450 class in [25], 1 A450 class in [26], 1 A450 class in experiment [27] and 1 A450 class in experiment [16]. For the same molecule, the results for the Kd in [28] and in [29] were 7 µM and 6 µM, respectively.

B3: CKR5 (HIV Co-receptor) (peptide)
peptide: ERASSVYTRSTGEQEISVGL
modifications: not checked
Turning to B3, the Classification in experiment [5], in experiment [30], in experiment [31], in experiment [32], in experiment [33] and in experiment [34] was 1 A450 class each time.
